Assay results taken from publication PMC8654305.

Target: recombinant N-terminal His6-tagged GlgB (Synechocystis sp. PCC 6803) (UniProt P52981)
Experiment: MST

recombinant N-terminal His6-tagged GlgB (Synechocystis sp. PCC 6803), sequence (P52981 whole entry): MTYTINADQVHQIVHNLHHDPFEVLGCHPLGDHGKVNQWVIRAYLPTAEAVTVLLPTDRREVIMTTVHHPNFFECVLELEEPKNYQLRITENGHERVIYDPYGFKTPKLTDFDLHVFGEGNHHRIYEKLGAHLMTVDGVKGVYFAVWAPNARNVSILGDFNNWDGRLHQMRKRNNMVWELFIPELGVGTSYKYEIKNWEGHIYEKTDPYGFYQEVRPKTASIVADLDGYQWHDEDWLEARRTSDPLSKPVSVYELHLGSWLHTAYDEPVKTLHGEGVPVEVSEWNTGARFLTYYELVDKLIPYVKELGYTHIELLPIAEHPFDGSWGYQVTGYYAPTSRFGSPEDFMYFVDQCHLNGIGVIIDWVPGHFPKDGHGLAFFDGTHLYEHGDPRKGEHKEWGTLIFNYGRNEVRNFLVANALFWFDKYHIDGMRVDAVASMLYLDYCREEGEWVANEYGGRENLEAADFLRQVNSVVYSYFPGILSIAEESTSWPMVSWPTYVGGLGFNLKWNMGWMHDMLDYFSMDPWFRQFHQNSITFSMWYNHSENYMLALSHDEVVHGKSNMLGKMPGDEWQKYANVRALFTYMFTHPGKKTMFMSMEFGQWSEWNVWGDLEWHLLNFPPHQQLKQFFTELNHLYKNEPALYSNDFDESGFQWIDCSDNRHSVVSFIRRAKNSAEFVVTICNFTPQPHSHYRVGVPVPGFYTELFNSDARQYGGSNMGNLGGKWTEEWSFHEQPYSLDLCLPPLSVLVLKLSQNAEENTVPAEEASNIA

recombinant C-terminal StrepII-tagged ScSbtB (SbtB from Synechocystis sp. PCC 6803) (from UniProt P73954 1-110) (natural protein)
Kd: 220 nM
